The results in this text go back to article PMC5153249.

Values joined by “and” are separate entries in the source; they are usually repeats but may differ in a detail not shown here. Identical values can stand only once.

Series [1] has as its system yeast 43S PIC: 40S+eIF1+eIF1A+eIF2 (Met-tRNAi TC); for mRNA recruitment also eIF5, eIF4A, eIF4B, eIF4E-eIF4G;eIF3 (a Box37) (Saccharomyces cerevisiae;Saccharomyces cerevisiae). The series can be described thus: EMSA. As to conditions: measurement 1; m7G cap; 30 mM HEPES-KOH pH 7.4, 100 mM KOAc, 3 mM Mg(OAc)2, 2 mM DTT, 1 mM GDPNP, 26 C, 2 h; native 4% THEM gel.
For series [2], the system named is yeast 43S PIC: 40S+eIF1+eIF1A+eIF2 (Met-tRNAi TC); for mRNA recruitment also eIF5, eIF4A, eIF4B, eIF4E-eIF4G;eIF3 (b rnp1) (Saccharomyces cerevisiae;Saccharomyces cerevisiae). Description: EMSA. The following applies: 30 mM HEPES-KOH pH 7.4, 100 mM KOAc, 3 mM Mg(OAc)2, 2 mM DTT, 1 mM GDPNP, 26 C, 2 h, native 4% THEM gel; for binding signal: measurement 1, m7G cap.

Series [3] concerns yeast 43S PIC: 40S+eIF1+eIF1A+eIF2 (Met-tRNAi TC); for mRNA recruitment also eIF5, eIF4A, eIF4B, eIF4E-eIF4G;eIF3 (c delta60) (Saccharomyces cerevisiae;Saccharomyces cerevisiae). The series can be described thus: EMSA. The following applies: measurement 1; m7G cap; 30 mM HEPES-KOH pH 7.4, 100 mM KOAc, 3 mM Mg(OAc)2, 2 mM DTT, 1 mM GDPNP, 26 C, 2 h; native 4% THEM gel.
Series [4] has as its system yeast 43S PIC: 40S+eIF1+eIF1A+eIF2 (Met-tRNAi TC); for mRNA recruitment also eIF5, eIF4A, eIF4B, eIF4E-eIF4G;eIF3 (a H725P) (Saccharomyces cerevisiae;Saccharomyces cerevisiae). The series can be described thus: EMSA. The following applies: measurement 1; m7G cap; 30 mM HEPES-KOH pH 7.4, 100 mM KOAc, 3 mM Mg(OAc)2, 2 mM DTT, 1 mM GDPNP, 26 C, 2 h; native 4% THEM gel.
Series [5] has as its system yeast 43S PIC: 40S+eIF1+eIF1A+eIF2 (Met-tRNAi TC); for mRNA recruitment also eIF5, eIF4A, eIF4B, eIF4E-eIF4G;eIF3 WT (a/b/c/i/g) (Saccharomyces cerevisiae;Saccharomyces cerevisiae). The series can be described thus: EMSA. As to conditions: measurement 1; m7G cap; 30 mM HEPES-KOH pH 7.4, 100 mM KOAc, 3 mM Mg(OAc)2, 2 mM DTT, 1 mM GDPNP, 26 C, 2 h; native 4% THEM gel.
Series [6] relates to yeast 43S PIC: 40S+eIF1+eIF1A+eIF2 (Met-tRNAi TC); for mRNA recruitment also eIF5, eIF4A, eIF4B, eIF4E-eIF4G;eIF3 (a Box6) (Saccharomyces cerevisiae;Saccharomyces cerevisiae). The series can be described thus: EMSA. As to conditions: measurement 1; m7G cap; 30 mM HEPES-KOH pH 7.4, 100 mM KOAc, 3 mM Mg(OAc)2, 2 mM DTT, 1 mM GDPNP, 26 C, 2 h; native 4% THEM gel.
The subject of series [7] is yeast 43S PIC: 40S+eIF1+eIF1A+eIF2 (Met-tRNAi TC); for mRNA recruitment also eIF5, eIF4A, eIF4B, eIF4E-eIF4G;eIF3 a/b/c sub-complex (Saccharomyces cerevisiae;Saccharomyces cerevisiae). The series can be described thus: EMSA. The following applies: 30 mM HEPES-KOH pH 7.4, 100 mM KOAc, 3 mM Mg(OAc)2, 2 mM DTT, 1 mM GDPNP, 26 C, 2 h, native 4% THEM gel; for binding signal: measurement 1, m7G cap.

In series [8] the test system is yeast 43S PIC: 40S+eIF1+eIF1A+eIF2 (Met-tRNAi TC); for mRNA recruitment also eIF5, eIF4A, eIF4B, eIF4E-eIF4G;eIF3 (c Box12-SPW) (Saccharomyces cerevisiae;Saccharomyces cerevisiae). Description: EMSA. As to conditions: measurement 1; m7G cap; 30 mM HEPES-KOH pH 7.4, 100 mM KOAc, 3 mM Mg(OAc)2, 2 mM DTT, 1 mM GDPNP, 26 C, 2 h; native 4% THEM gel.
For series [9], the system named is yeast 43S PIC: 40S+eIF1+eIF1A+eIF2 (Met-tRNAi TC); for mRNA recruitment also eIF5, eIF4A, eIF4B, eIF4E-eIF4G;eIF3 (a R731I) (Saccharomyces cerevisiae;Saccharomyces cerevisiae). The series can be described thus: EMSA. As to conditions: measurement 1; m7G cap; 30 mM HEPES-KOH pH 7.4, 100 mM KOAc, 3 mM Mg(OAc)2, 2 mM DTT, 1 mM GDPNP, 26 C, 2 h; native 4% THEM gel.
The test system of series [10] is yeast 43S PIC: 40S+eIF1+eIF1A+eIF2 (Met-tRNAi TC); for mRNA recruitment also eIF5, eIF4A, eIF4B, eIF4E-eIF4G;eIF3 (g KLF) (Saccharomyces cerevisiae;Saccharomyces cerevisiae). Description: EMSA. As to conditions: measurement 1; m7G cap; 30 mM HEPES-KOH pH 7.4, 100 mM KOAc, 3 mM Mg(OAc)2, 2 mM DTT, 1 mM GDPNP, 26 C, 2 h; native 4% THEM gel.
Series [11] relates to yeast 43S PIC: 40S+eIF1+eIF1A+eIF2 (Met-tRNAi TC); for mRNA recruitment also eIF5, eIF4A, eIF4B, eIF4E-eIF4G;eIF3 (a delta8) (Saccharomyces cerevisiae;Saccharomyces cerevisiae). Description: EMSA. The following applies: measurement 1, m7G cap, 30 mM HEPES-KOH pH 7.4, 100 mM KOAc, 3 mM Mg(OAc)2, 2 mM DTT, 1 mM GDPNP, 26 C, 2 h, native 4% THEM gel.
The subject of series [12] is yeast 43S PIC: 40S+eIF1+eIF1A+eIF2 (Met-tRNAi TC); for mRNA recruitment also eIF5, eIF4A, eIF4B, eIF4E-eIF4G;eIF3 (b prt1-1) (Saccharomyces cerevisiae;Saccharomyces cerevisiae). The series can be described thus: EMSA. The following applies: 30 mM HEPES-KOH pH 7.4, 100 mM KOAc, 3 mM Mg(OAc)2, 2 mM DTT, 1 mM GDPNP, 26 C, 2 h, native 4% THEM gel; for binding signal: measurement 1, m7G cap.

Series [13] relates to yeast 43S PIC: 40S+eIF1+eIF1A+eIF2 (Met-tRNAi TC); for mRNA recruitment also eIF5, eIF4A, eIF4B, eIF4E-eIF4G;eIF3 (i Q258R) (Saccharomyces cerevisiae;Saccharomyces cerevisiae). Description: EMSA. The following applies: measurement 1; m7G cap; 30 mM HEPES-KOH pH 7.4, 100 mM KOAc, 3 mM Mg(OAc)2, 2 mM DTT, 1 mM GDPNP, 26 C, 2 h; native 4% THEM gel.
Series [14] relates to yeast 43S PIC: 40S+eIF1+eIF1A+eIF2 (Met-tRNAi TC); for mRNA recruitment also eIF5, eIF4A, eIF4B, eIF4E-eIF4G;eIF3 (c GAP85) (Saccharomyces cerevisiae;Saccharomyces cerevisiae). Description: EMSA. The following applies: measurement 1; m7G cap; 30 mM HEPES-KOH pH 7.4, 100 mM KOAc, 3 mM Mg(OAc)2, 2 mM DTT, 1 mM GDPNP, 26 C, 2 h; native 4% THEM gel.
For series [15], the system named is yeast 43S PIC: 40S+eIF1+eIF1A+eIF2 (Met-tRNAi TC); for mRNA recruitment also eIF5, eIF4A, eIF4B, eIF4E-eIF4G (Saccharomyces cerevisiae). The series can be described thus: EMSA. The following applies: no eIF3, measurement 1, m7G cap, 30 mM HEPES-KOH pH 7.4, 100 mM KOAc, 3 mM Mg(OAc)2, 2 mM DTT, 1 mM GDPNP, 26 C, 2 h, native 4% THEM gel.
The target of series [16] is 43S pre-initiation complex (40S, eIF1, eIF1A, ternary complex; no mRNA) (S. cerevisiae) (UniProt P32911). The series can be described thus: native gel or EMSA; gel shift monitoring [35S]-Met-tRNAi; 43S PICs without mRNA (1 µM eIF1, 1 µM eIF1A, 200 nM eIF2, 1 mM GDPNP•Mg2+, 2 nM Met-tRNAi, 30 nM 40S); eIF3 titrated 30-500 nM; 1X Recon buffer (30 mM HEPES-KOH pH 7.4, 100 mM KOAc, 3 mM Mg(OAc)2, 2 mM DTT), 26 °C, 2 h; apparent KD, Hill equation; single experiments; apparent affinities ≤ 30 nM likely upper limits.

Series [17] has as its target 48S pre-initiation complex (40S, eIF1, eIF1A, ternary complex, AUG-containing model mRNA) (S. cerevisiae) (UniProt P32911). The series can be described thus: native gel or EMSA; gel shift monitoring [35S]-Met-tRNAi; 48S PICs with 1 µM uncapped AUG-containing model mRNA (1 µM eIF1, 1 µM eIF1A, 200 nM eIF2, 1 mM GDPNP•Mg2+, 2 nM Met-tRNAi, 20 nM 40S); eIF3 titrated 30-500 nM; 1X Recon buffer, 26 °C, 2 h; apparent KD, Hill equation; single experiments; apparent affinities ≤ 30 nM likely upper limits.

[18] abbreviates: no mRNA, ~3 fold weaker than WT, mean of 2, column assigned from text, Met-charged.

For 3'5-AUG model mRNA, the binding signal in [1] stood at 67.2 % recruited; in series [2], 66.2 % recruited; in [3], 78.3 % recruited; in series [4], 77.1 % recruited; in series [5], 78.9 % recruited; in [6], 73.3 % recruited. Besides, the binding signal stood at 50.3 % recruited in series [7]; 75.1 % recruited in [8]; 73.6 % recruited in series [9]; 72.6 % recruited in series [10]; 5.17 % recruited in series [11] (text: no recruitment); 77.9 % recruited in [12]. The results for the binding signal in series [13], in series [14] and in [15] (almost no recruitment) were 71 % recruited, 81 % recruited and 1.04 % recruited, respectively.

As to 3'17-AUG model mRNA, the binding signal in series [5] came to 97.2 % recruited; in series [11], 89.9 % recruited; in [15] it was 71.4 % recruited.

Regarding 5'5-AUG model mRNA, the binding signal in series [1] worked out at 82.5 % recruited; in [2], 69.4 % recruited; in [3], 87.9 % recruited; in series [4], 58.2 % recruited; in series [5], 84.1 % recruited; in [6], 62.5 % recruited. Moreover, the binding signal in series [7] is 32.1 % recruited; in [8], 85.3 % recruited; in series [9], 57.7 % recruited; in [10], 84.7 % recruited; in [11] it was 91.7 % recruited; in series [12] it was 79.9 % recruited. Besides, the figures for the binding signal in series [13], in series [14] and in [15] were 80.3 % recruited, 80.1 % recruited and 68.2 % recruited, respectively.

For 5'11-AUG model mRNA, the binding signal was 94.6 % recruited in [4]; 97.9 % recruited in series [5]; 97.8 % recruited in series [6]; 66.7 % recruited in series [7]; 91.8 % recruited in [9]; 90.9 % recruited in [15] (columns as in Fig 5).

In the case of “eIF3 (wild type) (from UniProt P38249 1-964; P06103 1-763; P32497 1-812; P40217 1-347; Q04067 1-274) (complex)”, the Kd in series [16] is 43 nM and 24 nM.

For “eIF3 variant R731I (eIF3a/Tif32 CTD) (from UniProt P38249 1-964; P06103 1-763; P32497 1-812; P40217 1-347; Q04067 1-274) (complex)”, the Kd in series [16] was 126 nM.

Turning to “eIF3 variant ∆60 (eIF3c/Nip1 CTD) (from UniProt P38249 1-964; P06103 1-763; P32497 1-752; P40217 1-347; Q04067 1-274) (complex)”, the Kd in series [17] was 41 nM and 52 nM; in series [16], 27 nM and 21 nM.

In the case of “eIF3a/b/c sub-complex lacking the i and g subunits (from UniProt P38249 1-964; P06103 1-763; P32497 1-812)”, the Kd in series [17] is 106 nM and 111 nM; in series [16] it was 87 nM and 98 nM.

On to initiator tRNAiMet, for which the Kd turned out to be 28.1 nM in series [2] (no mRNA, ~2 fold weaker than WT, mean of 2, column assigned from text, Met-charged); 47.8 nM in series [7] (setting [18]); 42.3 nM in [12] (setting [18]).

mid-AUG model mRNA: the binding signal in series [1] was 96.8 % recruited; in series [2], 77.8 % recruited; in [3] it was 96.9 % recruited; in series [4] it was 93.3 % recruited; in series [5], 98.5 % recruited; in series [6], 97.1 % recruited. In addition, the binding signal came to 81.6 % recruited in [7]; 96.1 % recruited in series [8]; 93.8 % recruited in series [9]; 98.3 % recruited in series [10]; 95.9 % recruited in series [11]; 94.6 % recruited in series [12]. Besides, the binding signal in [13] came out at 97.7 % recruited; in series [14], 97.7 % recruited; in series [15] it was 88.2 % recruited.
